This is an account of results in patent CN109957013A.

“And” between values parts separate entries of the source, which are not always exact repeats. Equal values may be shown once.

For experiment [1], the target named is H7N9病毒的血凝素HA (H7N9病毒). Put plainly: ELISA, positive control well. Background: ELISA stands for enzyme-linked immunosorbent assay.
For experiment [2], the target named is H7N9病毒的血凝素HA (H7N9病毒). Put plainly: ELISA of 293F supernatant with recombinant 7O2.

For 阳性对照, the 450 (absorbance at 450 nm) in experiment [1] was 1.15 (2×) and 1.21.

B1: 抗H7N9全人源单克隆抗体7O2 (antibody, V domains shown)
VH: EVQLVESGGGLVQPGGSLRLSCAASGFTFSSYWMHWVRQAPGKGLVWVSRINSDGSSTSYADSVKGRFTISRDNAKNTLYLQMNSLRAEDTAVYYCARRSKTGKFDPWGQGTLVTVSS
VL: SYELTQPPSVSVSPGQTARITCSGDALPKQYAYWYQQKPGQAPVLVIYKDSERPSGIPERFSGSSSGTTVTLTISGVQAEDEADYYCQSADSSGTLEVFGGGTKLTVLV
For the molecule B1, the 450 (absorbance at 450 nm) in experiment [2] was 3 and 3.12 and 2.96.
